US20140303084A1 (Biogen, published 2014)
Square brackets hold non-standard residues; d marks the D form. Primed or numbered codes have the meaning given here. Side chains are listed from the residue outwards. Ends that are not written are not given here. * marks the point of attachment. Biotin = O=C1N[C@H]2[C@H](CS[C@H]2CCCCC(=O)*)N1; NMeW = CN[C@@H](Cc1c[nH]c2ccccc12)C(=O)O; NMeY = CN[C@@H](Cc1ccc(O)cc1)C(=O)O; NMeF = CN[C@@H](Cc1ccccc1)C(=O)O; NMeT = CN[C@H](C(=O)O)[C@@H](C)O; NMeL = CN[C@@H](CC(C)C)C(=O)O; NMeK = CN[C@@H](CCCCN)C(=O)O; NMeS = CN[C@@H](CO)C(=O)O; PEG12′ = not defined here; NMeA = CN[C@@H](C)C(=O)O; Orn = NCCC[C@H](N)C(=O)O; PEG2″ = not defined here; Dab = NCC[C@H](N)C(=O)O; Dap = NC[C@H](N)C(=O)O

molecular target: human Factor IXa (human, UniProt P00740 47-191; P00740 227-461); assay: cell-based or functional assay

Binder	EC50 [µM], FXa generation assay [µM]	EC50 [µM], FXa generation assay with hFIXa [µM]
KLTCLA[NMeS]YCWLF (cysteine pairing not given here) [KLTCLA-MeSer-YCWLF]	> 20	–
KLTCLASACWLF	< 0.5	–
KLTC[NMeL]ASYCWLF (cysteine pairing not given here) [KLTC-MeLeu-ASYCWLF]	> 20	–
KLTELASY[Dap]WLF (not fully specified; printed as KLT-Glu-LASY-Dap-WLF) [KLT-Glu-LASY-Dap-WLF]	< 0.5	–
KLTCLASYCWL[dF] (cysteine pairing not given here) [KLTCLASYCWLf]	> 1	–
KLTXLASYCWLF (not fully specified; Pen 4) [KLT-Pen-LASYCWLF]	> 20	–
K[NMeL]TCLASYCWLF (cysteine pairing not given here) [K-MeLeu-TCLASYCWLF]	< 0.5	–
KKLTCLASYCWLF	< 0.5	–
KLTCLASYAWLF	> 1	–
KLT[Orn]LASYEWLF-NH2 (N-terminus assumed; SMILES CC(C)C[C@H](NC(=O)[C@H](CCCN)NC(=O)[C@@H](NC(=O)[C@H](CC(C)C)NC(=O)[C@@H](N)CCCCN)[C@@H](C)O)C(=O)N[C@@H](C)C(=O)N[C@@H](CO)C(=O)N[C@@H](Cc1ccc(O)cc1)C(=O)N[C@@H](CCC(=O)O)C(=O)N[C@@H](Cc1c[nH]c2ccccc12)C(=O)N[C@@H](CC(C)C)C(=O)N[C@@H](Cc1ccccc1)C(N)=O) [KLT-Orn-LASY-Glu-WLF-CONH2]	< 0.5	–
KLTCLA[dS]YCWLF (cysteine pairing not given here) [KLTCLAsYCWLF]	> 1	–
KLACLASYCWLF	< 0.5	–
[NMeK]LTCLASYCWLF (cysteine pairing not given here) [MeLys-LTCLASYCWLF]	< 0.5	–
KLTELASY[Dab]WLF (not fully specified; printed as KLT-Glu-LASY-Dab-WLF) [KLT-Glu-LASY-Dab-WLF]	> 1	–
KLTCLAS[NMeY]CWLF (cysteine pairing not given here) [KLTCLAS-MeTyr-CWLF]	> 20	–
[dK][NMeL]TCLASYCWLFWTGIA-NH2 (cysteine pairing not given here) [compound 10]	–	< 0.5
[dA][dI]G[dT][dW][dF][dL][dW][dC][dY][dS][dA][dL][dC][dT][dL][dK]G[dP][dA][dR][dR] (cysteine pairing not given here; also: retro-inverso) [aigtwflwcysalctlkgparr (retro-inverso)]	> 1	–
CKTYFWK[dP]GNIMVTFC[PEG12′]K([PEG2″-Biotin])[PEG12′][dR]RAPGKLTCLASYCWLFWTGIA (cysteine pairing not given here) [CKTYFWKpGNIMVTFC-PEG12-Lys(PEG2-Biotin)-PEG12-rRAPGKLTCLASYCWLFWTGIA]	> 20	–
RRRKLTCLASYCWLFRRR	> 1	–
KLTCLAS[dY]CWLF (not fully specified (bridges); printed as KLTCLASyCWLF; cysteine pairing not given here) [KLTCLASyCWLF]	> 5	–
ALTCLASYCWLF	> 1	–
KLTCLASYC[NMeW]LF (cysteine pairing not given here) [KLTCLASYC-MeTrp-LF]	> 20	–
KLTCLASYCWL[NMeF] (cysteine pairing not given here) [KLTCLASYCWL-MePhe]	> 1	–
KLTCLASYCALF	> 1	–
KLTCLASY[dC]WLF (cysteine pairing not given here) [KLTCLASYcWLF]	> 1	–

Binder	EC50 [µM], FXa generation assay [µM]	EC50 [µM], FXa generation assay with hFIXa [µM]
KLTELASY[Orn]WLF (not fully specified; printed as KLT-Glu-LASY-Orn-WLF) [KLT-Glu-LASY-Orn-WLF]	< 0.5	–
KLTALASYAWLF	> 5.8	–
AIGTWFLWCYSALCTLKGPARR (not fully specified; printed as AIGTWFLWCYSALCTLKGPARR (retro); cysteine pairing not given here) [AIGTWFLWCYSALCTLKGPARR (retro)]	> 1	–
KLTCL[NMeA]SYCWLF (cysteine pairing not given here) [KLTCL-MeAla-SYCWLF]	> 20	–
KLT[Dap]LASYEWLF (not fully specified; printed as KLT-Dap-LASY-Glu-WLF) [KLT-Dap-LASY-Glu-WLF]	< 0.5	–
KLTALASYCWLF	> 1	–
ALTCLAAYCALF	> 1	–
KLT[Orn]LASYEWLF-OH (N-terminus assumed; SMILES CC(C)C[C@H](NC(=O)[C@H](CCCN)NC(=O)[C@@H](NC(=O)[C@H](CC(C)C)NC(=O)[C@@H](N)CCCCN)[C@@H](C)O)C(=O)N[C@@H](C)C(=O)N[C@@H](CO)C(=O)N[C@@H](Cc1ccc(O)cc1)C(=O)N[C@@H](CCC(=O)O)C(=O)N[C@@H](Cc1c[nH]c2ccccc12)C(=O)N[C@@H](CC(C)C)C(=O)N[C@@H](Cc1ccccc1)C(=O)O) [KLT-Orn-LASY-Glu-WLF-COOH]	< 0.5	–
KLTCAASYCWLF	< 0.5	–
KAACLASACWLA	> 20	–
KLTCLASYC	> 1	–
[dR][dR][dA][dP]G[dK][dL][dT][dC][dL][dA][dS][dY][dC][dW][dL][dF][dW][dT]G[dI][dA] (not fully specified; printed as rrapgkltclasycwlfwtgia (inverso); cysteine pairing not given here) [rrapgkltclasycwlfwtgia (inverso)]	< 0.5	–
KLTCLASYCWLA	< 0.5	–
KLTCLASYCW	> 10	–
KATCLASYCWLF	< 0.5	–
KLTSLASYSWLF	> 15	–
TCLASYCWLF	< 0.5	–
KKKKLTCLASYCWLFKKK	> 5	–
CLASYCWLF	> 20	–
KLTCLASYCW[NMeL]F (cysteine pairing not given here) [KLTCLASYCW-MeLeu-F]	> 1	–
KLTCL[dA]SYCWLF (not fully specified (bridges); printed as KLTCLaSYCWLF; cysteine pairing not given here) [KLTCLaSYCWLF]	> 5	–
KL[NMeT]CLASYCWLF (cysteine pairing not given here) [KL-MeThr-CLASYCWLF]	< 0.5	–
[dK]LTCLASYCWLF (not fully specified; cysteine pairing not given here) [kLTCLASYCWLF]	< 0.5	–
KLTKLASYEWLF [KLT-Lys-LASY-Glu-WLF]	< 0.5	–
KLTCLASYXWLF (not fully specified; Pen 9) [KLTCLASY-Pen-WLF]	> 20	–
